This passage reports Km and kcat/Km results from paper PMC2796240.

The test system of this data set is CCCCC(=O)Oc1ccc([N+](=O)[O-])cc1. The data set can be described thus: purified protein. As to conditions: pH 7.5, 14.5 mM Tris-HCl, 0.75% glycerol, 0.5% Triton X, 1.1 µM enzyme.

As for “F. solani cutinase (Fusarium vanettenii)”, the Km (commonly the concentration of substrate that gives half-maximal velocity) is given as 1.48 ± 0.56 µM and the specificity constant (kcat/Km) (in general, the turnover number divided by the Michaelis constant) stood at 10200 ± 6670 M⁻¹ s⁻¹.
